Source: patent US7067619 (LA JOLLA CANCER RESEARCH FOUNDATION, dated 2006)

target: T1, α5β1 integrin isolated from human placental extract (human, UniProt P08648 42-1049; P05556 21-798); experiment: phage panning on coated integrin
T1 construct: coated on plastic wells or captured by anti-α5 antibody; also called fibronectin receptor
Description: (§1) In the first panning, the integrins were coated at 5 µg per well, and the library pool was incubated for 4 hours at 25° C. in TBS buffer containing 1% bovine serum albumin and 1 mM MnCl_2 (α_5β_1, α_vβ_3) 1 mM MgCl_2 ($\alphaIIb\beta_3$) or 1 mM CaCl_2 (α_vβ_5).

T1 sequence (P08648 42-1049, chain 1 of 2): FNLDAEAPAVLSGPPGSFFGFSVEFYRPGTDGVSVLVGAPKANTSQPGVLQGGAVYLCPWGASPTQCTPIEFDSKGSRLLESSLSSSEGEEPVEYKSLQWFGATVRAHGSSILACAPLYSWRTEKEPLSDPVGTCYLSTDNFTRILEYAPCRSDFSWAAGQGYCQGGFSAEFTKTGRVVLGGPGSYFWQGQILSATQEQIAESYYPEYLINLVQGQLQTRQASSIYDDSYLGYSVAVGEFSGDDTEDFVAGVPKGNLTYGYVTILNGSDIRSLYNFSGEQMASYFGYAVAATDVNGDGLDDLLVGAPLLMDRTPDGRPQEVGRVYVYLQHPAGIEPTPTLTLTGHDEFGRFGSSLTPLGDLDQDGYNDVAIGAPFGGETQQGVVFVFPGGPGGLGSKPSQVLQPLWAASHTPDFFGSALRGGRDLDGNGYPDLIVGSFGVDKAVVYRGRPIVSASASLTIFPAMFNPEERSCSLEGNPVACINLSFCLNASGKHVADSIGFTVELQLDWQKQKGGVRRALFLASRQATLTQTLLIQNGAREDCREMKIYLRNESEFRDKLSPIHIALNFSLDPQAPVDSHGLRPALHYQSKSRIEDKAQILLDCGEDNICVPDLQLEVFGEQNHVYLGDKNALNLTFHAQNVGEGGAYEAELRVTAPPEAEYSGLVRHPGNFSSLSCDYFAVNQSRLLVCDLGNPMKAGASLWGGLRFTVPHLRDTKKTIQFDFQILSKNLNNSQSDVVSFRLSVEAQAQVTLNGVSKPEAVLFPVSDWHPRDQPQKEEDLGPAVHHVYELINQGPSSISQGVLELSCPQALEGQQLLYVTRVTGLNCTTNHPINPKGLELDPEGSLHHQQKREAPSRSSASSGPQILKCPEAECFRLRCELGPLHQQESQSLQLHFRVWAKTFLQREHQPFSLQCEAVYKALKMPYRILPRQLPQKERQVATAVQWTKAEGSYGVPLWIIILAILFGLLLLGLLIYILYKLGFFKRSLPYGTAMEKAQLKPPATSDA
T1 sequence (P05556 21-798, chain 2 of 2): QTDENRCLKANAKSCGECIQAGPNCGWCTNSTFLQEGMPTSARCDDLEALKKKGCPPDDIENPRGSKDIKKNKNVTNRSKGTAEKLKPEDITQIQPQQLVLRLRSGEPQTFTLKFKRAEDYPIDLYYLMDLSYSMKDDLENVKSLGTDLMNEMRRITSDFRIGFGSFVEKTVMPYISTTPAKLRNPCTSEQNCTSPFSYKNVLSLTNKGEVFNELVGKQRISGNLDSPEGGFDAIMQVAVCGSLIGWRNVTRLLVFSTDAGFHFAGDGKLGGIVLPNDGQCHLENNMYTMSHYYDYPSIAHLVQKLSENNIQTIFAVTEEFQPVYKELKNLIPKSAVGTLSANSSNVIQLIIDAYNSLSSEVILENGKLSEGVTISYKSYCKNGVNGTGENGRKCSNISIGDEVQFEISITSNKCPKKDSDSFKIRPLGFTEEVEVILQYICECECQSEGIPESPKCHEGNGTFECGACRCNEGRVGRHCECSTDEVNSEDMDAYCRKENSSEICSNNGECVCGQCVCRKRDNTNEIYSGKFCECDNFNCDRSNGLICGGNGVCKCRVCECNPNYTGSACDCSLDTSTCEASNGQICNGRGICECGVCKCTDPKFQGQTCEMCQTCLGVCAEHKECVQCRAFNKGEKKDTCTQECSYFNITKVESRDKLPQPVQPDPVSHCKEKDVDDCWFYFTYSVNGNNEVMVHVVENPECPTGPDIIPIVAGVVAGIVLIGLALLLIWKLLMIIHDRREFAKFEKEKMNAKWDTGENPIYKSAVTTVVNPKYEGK

| Binder | binding result |
| --- | --- |
| CRGDGAWC (on fuse 5 phage, fused to pIII) [CRGDGAWC phage] | binds |
| CRGDGLDC (on fuse 5 phage, fused to pIII) [CRGDGLDC phage] | binds |
| CRGDGAFC (on fuse 5 phage, fused to pIII) [CRGDGAFC phage] | binds |
| CRGDGMWC (on fuse 5 phage, fused to pIII) [CRGDGMWC phage] | binds |
| CRGDGWIC (on fuse 5 phage, fused to pIII) [CRGDGWIC phage] | binds |
| CRGDAAWC (on fuse 5 phage, fused to pIII) [CRGDAAWC phage] | binds |
| CRGDGFLC (on fuse 5 phage, fused to pIII) [CRGDGFLC phage] | binds |
| CRGDGLIC (on fuse 5 phage, fused to pIII) [CRGDGLIC phage] | binds |
| CRGDAAHC (on fuse 5 phage, fused to pIII) [CRGDAAHC phage] | binds |
| CRGDGLMC (on fuse 5 phage, fused to pIII) [CRGDGLMC phage] | binds |
| CRGDGMLC (on fuse 5 phage, fused to pIII) [CRGDGMLC phage] | binds |
| CRGDGWLC (on fuse 5 phage, fused to pIII) [CRGDGWLC phage] | binds |
| CRGDGWMC (on fuse 5 phage, fused to pIII) [CRGDGWMC phage] | binds |
| CRGDGLWC (on fuse 5 phage, fused to pIII) [CRGDGLWC phage] | binds |
| CRGDGLLC (on fuse 5 phage, fused to pIII) [CRGDGLLC phage] | binds |

target: αvβ5 integrin isolated from human placental extract (human, UniProt P06756 31-1048; P18084 24-799); experiment: phage panning on coated integrin
Description: as §1

αvβ5 integrin isolated from human placental extract, sequence (P06756 31-1048, chain 1 of 2): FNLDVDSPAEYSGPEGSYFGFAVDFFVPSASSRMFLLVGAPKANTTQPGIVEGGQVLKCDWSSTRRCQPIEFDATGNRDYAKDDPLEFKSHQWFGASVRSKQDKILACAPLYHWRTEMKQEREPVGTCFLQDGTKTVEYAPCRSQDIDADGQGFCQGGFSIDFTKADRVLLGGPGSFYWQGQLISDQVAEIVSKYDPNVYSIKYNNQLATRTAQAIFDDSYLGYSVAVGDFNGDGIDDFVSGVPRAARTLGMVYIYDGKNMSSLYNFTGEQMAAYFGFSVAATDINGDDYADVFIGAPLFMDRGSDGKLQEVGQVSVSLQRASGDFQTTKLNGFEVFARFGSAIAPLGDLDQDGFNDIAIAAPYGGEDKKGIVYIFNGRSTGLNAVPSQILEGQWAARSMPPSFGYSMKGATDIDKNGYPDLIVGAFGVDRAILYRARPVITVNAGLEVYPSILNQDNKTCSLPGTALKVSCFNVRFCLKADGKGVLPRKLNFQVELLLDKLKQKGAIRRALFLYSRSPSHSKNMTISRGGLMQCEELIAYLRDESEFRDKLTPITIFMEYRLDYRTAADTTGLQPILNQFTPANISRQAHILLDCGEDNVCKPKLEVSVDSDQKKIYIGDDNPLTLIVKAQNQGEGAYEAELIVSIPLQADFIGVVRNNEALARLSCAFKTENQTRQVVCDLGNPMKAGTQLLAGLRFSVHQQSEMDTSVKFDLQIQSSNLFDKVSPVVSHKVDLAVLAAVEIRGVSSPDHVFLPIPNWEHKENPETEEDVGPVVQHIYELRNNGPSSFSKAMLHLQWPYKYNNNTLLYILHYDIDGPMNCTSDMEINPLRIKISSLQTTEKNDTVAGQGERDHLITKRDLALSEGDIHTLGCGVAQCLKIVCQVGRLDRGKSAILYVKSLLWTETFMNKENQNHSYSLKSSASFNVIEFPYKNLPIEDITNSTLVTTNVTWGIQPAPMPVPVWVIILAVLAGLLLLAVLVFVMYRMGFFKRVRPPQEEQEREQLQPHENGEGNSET
αvβ5 integrin isolated from human placental extract, sequence (P18084 24-799, chain 2 of 2): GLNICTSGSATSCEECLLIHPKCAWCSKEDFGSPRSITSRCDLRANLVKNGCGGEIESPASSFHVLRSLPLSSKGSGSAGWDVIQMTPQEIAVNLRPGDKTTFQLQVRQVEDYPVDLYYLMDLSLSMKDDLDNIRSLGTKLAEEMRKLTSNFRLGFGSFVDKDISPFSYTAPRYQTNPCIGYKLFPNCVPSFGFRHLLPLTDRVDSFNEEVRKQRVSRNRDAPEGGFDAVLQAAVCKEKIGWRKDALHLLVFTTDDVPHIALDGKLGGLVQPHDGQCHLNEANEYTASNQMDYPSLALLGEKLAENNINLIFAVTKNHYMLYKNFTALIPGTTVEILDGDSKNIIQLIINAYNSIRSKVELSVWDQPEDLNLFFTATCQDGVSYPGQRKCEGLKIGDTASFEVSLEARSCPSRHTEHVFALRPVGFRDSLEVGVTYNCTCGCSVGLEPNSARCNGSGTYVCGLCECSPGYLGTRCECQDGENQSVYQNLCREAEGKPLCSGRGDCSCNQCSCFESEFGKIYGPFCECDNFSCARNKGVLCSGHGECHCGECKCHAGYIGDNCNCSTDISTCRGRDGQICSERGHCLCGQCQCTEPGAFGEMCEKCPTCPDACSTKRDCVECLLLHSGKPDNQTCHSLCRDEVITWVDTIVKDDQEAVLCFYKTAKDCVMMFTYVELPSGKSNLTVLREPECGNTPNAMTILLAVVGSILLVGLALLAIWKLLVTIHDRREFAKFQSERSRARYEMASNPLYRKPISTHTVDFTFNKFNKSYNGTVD

| Binder | binding result |
| --- | --- |
| CTRKRAVGAA (on fuse 5 phage, fused to pIII) [CTRKRAVGAA phage] | binds |
| CGQRSSARAS (on fuse 5 phage, fused to pIII) [CGQRSSARAS phage] | binds |
| CRGDLPRAWC (on fuse 5 phage, fused to pIII) [CRGDLPRAWC phage] | binds |
| CYRGDADFWC (on fuse 5 phage, fused to pIII) [CYRGDADFWC phage] | binds |
| CIEIQHGKAC (on fuse 5 phage, fused to pIII) [CIEIQHGKAC phage] | binds |
| CRKQVMACTA (on fuse 5 phage, fused to pIII) [CRKQVMACTA phage] | binds |
| CGPRERFLSC (on fuse 5 phage, fused to pIII) [CGPRERFLSC phage] | binds |
| CRGDTPGFLC (on fuse 5 phage, fused to pIII) [CRGDTPGFLC phage] | binds |
| CEAKFQLHWV (on fuse 5 phage, fused to pIII) [CEAKFQLHWV phage] | binds |
| CGSPLKSIKC (on fuse 5 phage, fused to pIII) [CGSPLKSIKC phage] | binds |
| CPDKRGDTYC (on fuse 5 phage, fused to pIII) [CPDKRGDTYC phage] | binds |
| CVGKELHKRV (on fuse 5 phage, fused to pIII) [CVGKELHKRV phage] | binds |
| CIRQRIYPWC (on fuse 5 phage, fused to pIII) [CIRQRIYPWC phage] | binds |
| CRGDVPAVGC (on fuse 5 phage, fused to pIII) [CRGDVPAVGC phage] | binds |
| CSQKRGDTWC (on fuse 5 phage, fused to pIII) [CSQKRGDTWC phage] | binds |
